Paper PMC6563293
Read-outs that look alike come from different tables or passages of the source.

System: MBP::P1 (Wheat streak mosaic virus (isolate Sidney 81))
Assay: EMSA

21-nt GFP ds-siRNA
K half (5' phosphate): 0.03 nmol

24-nt GFP ds-siRNA
K half (5' phosphate): 0.03 nmol

180-nt GFP dsRNA
K half: 0.03 nmol
